Experimental data: PMC9808567

T1: PRPF39 full-length (human, UniProt Q86UA1 1-669)
T1 sequence: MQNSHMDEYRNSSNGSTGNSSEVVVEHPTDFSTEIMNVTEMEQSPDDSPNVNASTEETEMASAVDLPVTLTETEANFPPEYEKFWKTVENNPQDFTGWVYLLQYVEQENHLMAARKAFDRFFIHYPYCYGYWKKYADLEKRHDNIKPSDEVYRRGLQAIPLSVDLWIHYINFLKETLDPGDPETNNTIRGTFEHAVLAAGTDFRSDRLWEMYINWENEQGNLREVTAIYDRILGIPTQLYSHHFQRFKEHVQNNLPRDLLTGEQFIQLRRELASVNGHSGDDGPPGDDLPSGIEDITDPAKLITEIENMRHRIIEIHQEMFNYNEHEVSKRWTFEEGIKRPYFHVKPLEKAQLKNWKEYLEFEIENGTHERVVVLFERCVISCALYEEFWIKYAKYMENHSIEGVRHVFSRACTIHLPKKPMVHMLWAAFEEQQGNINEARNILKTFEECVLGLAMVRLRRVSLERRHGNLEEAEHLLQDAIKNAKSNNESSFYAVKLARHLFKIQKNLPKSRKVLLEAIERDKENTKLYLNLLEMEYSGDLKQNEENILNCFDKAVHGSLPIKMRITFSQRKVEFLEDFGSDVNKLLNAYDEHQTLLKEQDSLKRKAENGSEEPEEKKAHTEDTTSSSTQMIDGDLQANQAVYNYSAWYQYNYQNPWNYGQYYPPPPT

T2: PRPF39 CTD (human, UniProt Q86UA1 297-669)
T2 sequence: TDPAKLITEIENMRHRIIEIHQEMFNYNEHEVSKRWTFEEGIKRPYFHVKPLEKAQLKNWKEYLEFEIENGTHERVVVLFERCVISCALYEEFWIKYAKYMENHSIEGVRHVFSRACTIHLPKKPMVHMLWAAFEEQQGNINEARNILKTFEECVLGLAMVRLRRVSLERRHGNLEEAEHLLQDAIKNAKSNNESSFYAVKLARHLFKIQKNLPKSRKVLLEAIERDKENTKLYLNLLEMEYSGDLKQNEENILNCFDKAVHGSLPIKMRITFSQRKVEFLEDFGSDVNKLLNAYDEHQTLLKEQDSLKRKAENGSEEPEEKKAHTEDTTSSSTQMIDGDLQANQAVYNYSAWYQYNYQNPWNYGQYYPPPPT

T3: PRPF39 NTD (human, UniProt Q86UA1 1-296)
T3 sequence: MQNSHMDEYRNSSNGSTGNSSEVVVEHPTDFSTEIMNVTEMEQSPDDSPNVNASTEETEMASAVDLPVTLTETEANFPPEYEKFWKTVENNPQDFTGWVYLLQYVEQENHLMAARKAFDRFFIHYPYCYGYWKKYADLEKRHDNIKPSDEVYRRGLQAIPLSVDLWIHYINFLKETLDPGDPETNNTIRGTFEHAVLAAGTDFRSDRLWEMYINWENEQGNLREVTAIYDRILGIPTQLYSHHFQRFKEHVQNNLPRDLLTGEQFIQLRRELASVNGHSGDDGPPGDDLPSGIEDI


Columns and labels:
Assay in all cases: EMSA
PRPF39 full-length = target: T1, PRPF39 full-length
PRPF39 CTD = target: T2, PRPF39 CTD
PRPF39 NTD = target: T3, PRPF39 NTD

Binder	Kd (PRPF39 full-length) [nM]	binding result (PRPF39 CTD)	binding result (PRPF39 NTD)
GGCCCCCCGG (ssRNA) [GC-rich RNA oligo]	516 ± 256	–	–
AAAAAAAAAA (ssRNA) [10 nt poly(A) RNA oligo]	–	no binding	no binding
